The values below come from the supplement of paper PMC5998384.

In series [1] the test system is HeLa Kyoto. The series can be described thus: solubility change mitosis vs G1/S (difference of NP-40 vs SDS log2 ratios) (log2 ratio difference); higher = more soluble in mitosis.
Series [2] has as its system HeLa Kyoto. Description: thermal stability score vs G1/S (z-score of summed log2 fold changes over temperatures); higher = more thermally stable than in G1/S.
The subject of series [3] is HeLa Kyoto. The series can be described thus: solubility in G1/S (NP-40 vs SDS abundance) (log2 ratio); higher = more soluble. The conditions noted are these: cell cycle stage: G1/S.
Where [4] appears, read: cell cycle stage: early G1 (4.5 h after nocodazole release).
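For solubility change mitosis vs G1/S (difference of NP-40 vs SDS log2 ratios) in this document: synchronized HeLa Kyoto cells (double thymidine block for G1/S, nocodazole release for mitosis), protein amounts in NP-40 versus SDS lysates quantified by mass spectrometry, three biological replicates.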
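For solubility in G1/S (NP-40 vs SDS abundance) in this document: HeLa Kyoto cells arrested at G1/S by double thymidine block, proteins quantified by TMT10plex mass spectrometry in mild NP-40 versus SDS extracts, three biological replicates.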
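For thermal stability score vs G1/S (z-score of summed log2 fold changes over temperatures) in this document: synchronized HeLa Kyoto cells, proteins quantified by TMT10plex mass spectrometry, three biological replicates, mitosis taken 0.5 h after nocodazole release, G1/S directly after double thymidine block.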

AGRN, sequence (chain, as listed by the source): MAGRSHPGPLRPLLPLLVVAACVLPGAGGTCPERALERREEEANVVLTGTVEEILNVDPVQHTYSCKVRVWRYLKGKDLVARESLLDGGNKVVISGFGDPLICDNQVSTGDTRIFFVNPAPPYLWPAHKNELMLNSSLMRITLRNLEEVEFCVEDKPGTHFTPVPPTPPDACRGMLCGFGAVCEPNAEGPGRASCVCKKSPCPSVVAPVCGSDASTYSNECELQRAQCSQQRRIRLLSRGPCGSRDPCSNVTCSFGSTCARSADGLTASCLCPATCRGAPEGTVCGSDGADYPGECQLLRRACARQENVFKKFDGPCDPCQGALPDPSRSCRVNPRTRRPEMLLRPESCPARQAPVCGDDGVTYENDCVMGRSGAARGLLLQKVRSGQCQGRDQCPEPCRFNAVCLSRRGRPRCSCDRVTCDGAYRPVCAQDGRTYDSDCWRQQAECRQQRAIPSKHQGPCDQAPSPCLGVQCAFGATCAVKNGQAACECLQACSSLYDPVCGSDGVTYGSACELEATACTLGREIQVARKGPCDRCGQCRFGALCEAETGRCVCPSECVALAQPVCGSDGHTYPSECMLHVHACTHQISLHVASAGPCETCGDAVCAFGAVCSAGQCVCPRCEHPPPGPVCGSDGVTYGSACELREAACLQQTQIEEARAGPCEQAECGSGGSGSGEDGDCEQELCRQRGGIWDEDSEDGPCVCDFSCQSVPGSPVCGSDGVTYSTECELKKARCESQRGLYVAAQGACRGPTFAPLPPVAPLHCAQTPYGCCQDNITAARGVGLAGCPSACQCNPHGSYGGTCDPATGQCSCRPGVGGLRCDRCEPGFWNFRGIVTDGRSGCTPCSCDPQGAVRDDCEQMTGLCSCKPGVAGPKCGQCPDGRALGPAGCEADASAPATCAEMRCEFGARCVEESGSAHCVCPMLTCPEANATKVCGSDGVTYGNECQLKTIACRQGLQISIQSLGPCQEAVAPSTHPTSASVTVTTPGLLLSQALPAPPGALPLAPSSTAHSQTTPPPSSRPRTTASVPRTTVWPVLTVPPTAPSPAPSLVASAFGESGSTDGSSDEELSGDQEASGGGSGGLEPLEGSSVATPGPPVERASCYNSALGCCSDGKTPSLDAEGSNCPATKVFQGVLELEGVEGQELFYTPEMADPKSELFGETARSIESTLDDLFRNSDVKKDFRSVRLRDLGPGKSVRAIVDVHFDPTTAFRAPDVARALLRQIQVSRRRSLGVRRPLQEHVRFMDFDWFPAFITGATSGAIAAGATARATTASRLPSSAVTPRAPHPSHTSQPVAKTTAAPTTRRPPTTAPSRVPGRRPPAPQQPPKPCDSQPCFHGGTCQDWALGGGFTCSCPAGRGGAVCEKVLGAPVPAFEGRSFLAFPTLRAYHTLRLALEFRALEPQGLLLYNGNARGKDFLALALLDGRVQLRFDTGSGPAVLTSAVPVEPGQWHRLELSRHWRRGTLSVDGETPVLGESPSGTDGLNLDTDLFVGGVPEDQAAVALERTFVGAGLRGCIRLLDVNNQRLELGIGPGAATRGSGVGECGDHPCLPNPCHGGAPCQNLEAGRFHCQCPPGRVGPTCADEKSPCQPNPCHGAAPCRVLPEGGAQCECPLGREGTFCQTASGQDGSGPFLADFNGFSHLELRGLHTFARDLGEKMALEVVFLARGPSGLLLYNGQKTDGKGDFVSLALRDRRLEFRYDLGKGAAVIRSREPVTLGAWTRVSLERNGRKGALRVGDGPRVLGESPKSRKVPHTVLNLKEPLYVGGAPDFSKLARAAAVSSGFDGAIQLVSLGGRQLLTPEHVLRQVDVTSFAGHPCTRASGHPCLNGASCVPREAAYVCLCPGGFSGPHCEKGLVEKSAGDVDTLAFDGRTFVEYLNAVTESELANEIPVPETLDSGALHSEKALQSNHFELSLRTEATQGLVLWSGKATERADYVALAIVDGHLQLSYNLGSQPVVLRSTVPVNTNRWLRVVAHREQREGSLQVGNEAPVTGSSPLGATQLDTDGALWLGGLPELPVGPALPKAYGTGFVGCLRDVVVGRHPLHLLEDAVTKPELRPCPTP
CIC, sequence (chain, as listed by the source): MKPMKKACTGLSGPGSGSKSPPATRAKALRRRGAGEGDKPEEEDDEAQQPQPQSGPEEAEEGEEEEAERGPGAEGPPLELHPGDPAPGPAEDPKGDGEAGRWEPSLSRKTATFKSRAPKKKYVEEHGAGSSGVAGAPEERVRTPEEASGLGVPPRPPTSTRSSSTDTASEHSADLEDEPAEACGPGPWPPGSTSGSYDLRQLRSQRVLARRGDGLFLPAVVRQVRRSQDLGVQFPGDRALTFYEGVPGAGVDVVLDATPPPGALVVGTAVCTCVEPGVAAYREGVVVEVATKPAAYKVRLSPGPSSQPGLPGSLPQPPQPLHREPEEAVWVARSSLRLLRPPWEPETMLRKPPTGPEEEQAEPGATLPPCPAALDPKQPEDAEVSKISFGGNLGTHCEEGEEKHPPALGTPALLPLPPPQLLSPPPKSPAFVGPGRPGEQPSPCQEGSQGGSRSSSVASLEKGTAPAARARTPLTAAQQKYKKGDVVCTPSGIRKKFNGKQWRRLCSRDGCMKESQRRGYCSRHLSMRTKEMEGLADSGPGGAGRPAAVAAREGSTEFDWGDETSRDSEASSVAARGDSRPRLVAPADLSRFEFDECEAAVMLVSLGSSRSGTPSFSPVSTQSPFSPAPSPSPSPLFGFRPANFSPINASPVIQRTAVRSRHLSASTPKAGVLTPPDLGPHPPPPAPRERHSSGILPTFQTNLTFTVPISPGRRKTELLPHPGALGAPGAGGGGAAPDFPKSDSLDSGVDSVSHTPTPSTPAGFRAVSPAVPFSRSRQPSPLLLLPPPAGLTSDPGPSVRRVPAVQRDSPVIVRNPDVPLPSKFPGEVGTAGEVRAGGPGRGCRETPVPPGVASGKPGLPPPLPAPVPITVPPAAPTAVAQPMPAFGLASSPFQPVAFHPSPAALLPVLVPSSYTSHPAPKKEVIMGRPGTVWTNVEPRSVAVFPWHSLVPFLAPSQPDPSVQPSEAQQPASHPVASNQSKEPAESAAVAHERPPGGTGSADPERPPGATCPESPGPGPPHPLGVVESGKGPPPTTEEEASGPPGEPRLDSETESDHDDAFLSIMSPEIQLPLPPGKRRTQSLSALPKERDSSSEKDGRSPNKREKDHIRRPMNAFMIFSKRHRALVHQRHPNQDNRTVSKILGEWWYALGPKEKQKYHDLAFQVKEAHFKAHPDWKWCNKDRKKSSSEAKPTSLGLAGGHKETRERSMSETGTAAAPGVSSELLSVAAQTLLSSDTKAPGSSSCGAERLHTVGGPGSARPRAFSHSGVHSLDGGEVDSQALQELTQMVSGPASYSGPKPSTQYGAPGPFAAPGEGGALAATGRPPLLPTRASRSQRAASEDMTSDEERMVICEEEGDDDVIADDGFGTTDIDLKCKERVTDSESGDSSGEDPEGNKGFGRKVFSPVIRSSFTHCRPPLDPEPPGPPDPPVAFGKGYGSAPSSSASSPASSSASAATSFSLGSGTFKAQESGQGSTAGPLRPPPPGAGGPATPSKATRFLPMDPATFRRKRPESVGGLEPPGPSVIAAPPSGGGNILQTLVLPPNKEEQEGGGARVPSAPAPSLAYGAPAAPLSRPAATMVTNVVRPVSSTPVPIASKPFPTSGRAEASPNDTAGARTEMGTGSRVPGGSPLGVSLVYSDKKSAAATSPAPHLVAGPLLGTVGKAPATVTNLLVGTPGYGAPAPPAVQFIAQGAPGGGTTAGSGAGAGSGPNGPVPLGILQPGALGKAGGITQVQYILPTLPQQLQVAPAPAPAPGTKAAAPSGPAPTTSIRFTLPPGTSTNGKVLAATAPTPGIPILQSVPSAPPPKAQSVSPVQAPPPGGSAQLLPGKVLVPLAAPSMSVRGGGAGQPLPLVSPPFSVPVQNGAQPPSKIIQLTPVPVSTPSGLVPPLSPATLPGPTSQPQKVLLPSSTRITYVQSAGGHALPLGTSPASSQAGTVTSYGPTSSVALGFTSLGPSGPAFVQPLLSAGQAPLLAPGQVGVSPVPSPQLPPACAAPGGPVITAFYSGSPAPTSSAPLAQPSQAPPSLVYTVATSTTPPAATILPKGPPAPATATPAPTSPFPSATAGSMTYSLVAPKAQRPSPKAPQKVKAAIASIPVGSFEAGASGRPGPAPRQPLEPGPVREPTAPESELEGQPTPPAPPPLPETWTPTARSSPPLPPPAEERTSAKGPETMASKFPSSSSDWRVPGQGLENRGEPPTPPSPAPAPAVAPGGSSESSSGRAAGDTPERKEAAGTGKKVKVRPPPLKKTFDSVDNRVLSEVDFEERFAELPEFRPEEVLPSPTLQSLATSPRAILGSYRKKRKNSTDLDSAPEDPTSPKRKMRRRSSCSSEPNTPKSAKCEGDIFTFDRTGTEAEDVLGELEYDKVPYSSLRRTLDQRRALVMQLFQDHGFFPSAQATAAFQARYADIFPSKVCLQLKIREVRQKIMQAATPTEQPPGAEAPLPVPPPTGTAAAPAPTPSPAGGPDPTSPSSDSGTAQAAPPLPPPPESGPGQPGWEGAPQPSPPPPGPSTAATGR
CLK3, sequence (chain, as listed by the source): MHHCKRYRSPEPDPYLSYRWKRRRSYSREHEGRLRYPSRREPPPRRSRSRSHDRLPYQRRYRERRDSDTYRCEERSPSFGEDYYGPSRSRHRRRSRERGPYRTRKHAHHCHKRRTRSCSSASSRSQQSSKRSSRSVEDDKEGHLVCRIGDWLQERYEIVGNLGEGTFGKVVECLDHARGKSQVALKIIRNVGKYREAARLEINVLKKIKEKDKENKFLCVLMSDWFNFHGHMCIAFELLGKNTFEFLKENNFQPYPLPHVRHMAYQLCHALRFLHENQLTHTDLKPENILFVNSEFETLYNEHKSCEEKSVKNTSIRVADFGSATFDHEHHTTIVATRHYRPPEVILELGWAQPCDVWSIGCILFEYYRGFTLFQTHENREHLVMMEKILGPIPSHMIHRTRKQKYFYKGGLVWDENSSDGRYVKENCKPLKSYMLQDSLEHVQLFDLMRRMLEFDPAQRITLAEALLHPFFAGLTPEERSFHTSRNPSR

Regarding AGRN, the “solubility change mitosis (log2)” value in series [1] is -0.0384. For the same substance, the thermal stability score was determined as 3.71 in series [2] (setting [4]) and 4.6 in series [2] (cell cycle stage: mitosis).

As for ALG12, in series [1], the “solubility change mitosis (log2)” value is -0.0892. Moreover, the “solubility in G1/S (log2)” value in series [3] is -0.268. For ARAP3 the same measures were -0.158 and 0.016. Take ARHGEF11: the “solubility change mitosis (log2)” value in series [1] is -0.0196. Besides, in series [3], the “solubility in G1/S (log2)” value is -0.0113.

On to ATG2A, for which the “solubility change mitosis (log2)” value in series [1] was -0.036. Also, the “solubility in G1/S (log2)” value in series [3] is -0.135. For ATRN, in series [1], the “solubility change mitosis (log2)” value was -0.041. The “solubility in G1/S (log2)” value in series [3] worked out at 0.238. With BCORL1, the “solubility change mitosis (log2)” value in series [1] worked out at 0.348. Also, the “solubility in G1/S (log2)” value in series [3] was -0.267. With CBWD1, the “solubility change mitosis (log2)” value in series [1] is -0.0771. The “solubility in G1/S (log2)” value in series [3] was 0.26. Take CEP290: the “solubility change mitosis (log2)” value in series [1] was 0.0705. Moreover, the “solubility in G1/S (log2)” value in series [3] is 0.253. For the substance CIC, the “solubility change mitosis (log2)” value in series [1] is -0.0541. Also, the “solubility in G1/S (log2)” value in series [3] was -0.00578. Consider CLK3, for which, in series [1], the “solubility change mitosis (log2)” value amounted to 0.423. Further, in series [3], the “solubility in G1/S (log2)” value was -1.26.

As for DDX60, in series [1], the “solubility change mitosis (log2)” value was -0.0365. Besides, in series [3], the “solubility in G1/S (log2)” value is -0.517. As for DOCK4, the “solubility change mitosis (log2)” value in series [1] was 0.0146. Moreover, in series [3], the “solubility in G1/S (log2)” value was -0.259. With LMTK2, the “solubility change mitosis (log2)” value in series [1] is -0.217. The “solubility in G1/S (log2)” value in series [3] was -0.313. The corresponding values for “MAAAAASGAGGAAGAGTGGAGPAGRLLPPPAPGSPAAPAAVSPAAGQPRPPAPASRGPMPARIGYYEIDRTIGKGNFAVVKRATHLVTKAKVAIKIIDKTQLDEENLKKIFREVQIMKMLCHPHIIRLYQVMETERMIYLVTEYASGGEIFDHLVAHGRMAEKEARRKFKQIVTAVYFCHCRNIVHRDLKAENLLLDANLNIKIADFGFSNLFTPGQLLKTWCGSPPYAAPELFEGKEYDGPKVDIWSLGVVLYVLVCGALPFDGSTLQNLRARVLSGKFRIPFFMSTECEHLIRHMLVLDPNKRLSMEQICKHKWMKLGDADPNFDRLIAECQQLKEERQVDPLNEDVLLAMEDMGLDKEQTLQSLRSDAYDHYSAIYSLLCDRHKRHKTLRLGALPSMPRALAFQAPVNIQAEQAGTAMNISVPQVQLINPENQIVEPDGTLNLDSDEGEEPSPEALVRYLSMRRHTVGVADPRTEVMEDLQKLLPGFPGVNPQAPFLQVAPNVNFMHNLLPMQNLQPTGQLEYKEQSLLQPPTLQLLNGMGPLGRRASDGGANIQLHAQQLLKRPRGPSPLVTMTPAVPAVTPVDEESSDGEPDQEAVQSSTYKDSNTLHLPTERFSPVRRFSDGAASIQAFKAHLEKMGNNSSIKQLQQECEQLQKMYGGQIDERTLEKTQQQHMLYQQEQHHQILQQQIQDSICPPQPSPPLQAACENQPALLTHQLQRLRIQPSSPPPNHPNNHLFRQPSNSPPPMSSAMIQPHGAASSSQFQGLPSRSAIFQQQPENCSSPPNVALTCLGMQQPAQSQQVTIQVQEPVDMLSNMPGTAAGSSGRGISISPSAGQMQMQHRTNLMATLSYGHRPLSKQLSADSAEAHSLNVNRFSPANYDQAHLHPHLFSDQSRGSPSSYSPSTGVGFSPTQALKVPPLDQFPTFPPSAHQQPPHYTTSALQQALLSPTPPDYTRHQQVPHILQGLLSPRHSLTGHSDIRLPPTEFAQLIKRQQQQRQQQQQQQQQQEYQELFRHMNQGDAGSLAPSLGGQSMTERQALSYQNADSYHHHTSPQHLLQIRAQECVSQASSPTPPHGYAHQPALMHSESMEEDCSCEGAKDGFQDSKSSSTLTKGCHDSPLLLSTGGPGDPESLLGTVSHAQELGIHPYGHQPTAAFSKNKVPSREPVIGNCMDRSSPGQAVELPDHNGLGYPARPSVHEHHRPRALQRHHTIQNSDDAYVQLDNLPGMSLVAGKALSSARMSDAVLSQSSLMGSQQFQDGENEECGASLGGHEHPDLSDGSQHLNSSCYPSTCITDILLSYKHPEVSFSMEQAGV [SIK3]” are 0.04 and -0.387. Consider “MAAAAVSSAKRSLRGELKQRLRAMSAEERLRQSRVLSQKVIAHSEYQKSKRISIFLSMQDEIETEEIIKDIFQRGKICFIPRYRFQSNHMDMVRIESPEEISLLPKTSWNIPQPGEGDVREEALSTGGLDLIFMPGLGFDKHGNRLGRGKGYYDAYLKRCLQHQEVKPYTLALAFKEQICLQVPVNENDMKVDEVLYEDSSTA [MTHFS]”, for which, in series [1], the “solubility change mitosis (log2)” value is 0.0622. For the same substance, the “solubility in G1/S (log2)” value in series [3] was 0.146. Turning to “MAAATLTSKLYSLLFRRTSTFALTIIVGVMFFERAFDQGADAIYDHINEGKLWKHIKHKYENK [UQCR10]”, in series [1], the “solubility change mitosis (log2)” value is 0.0588. The “solubility in G1/S (log2)” value in series [3] was -0.233. Turning to “MAFIRKKQQEQQLQLYSKERFSLLLLNLEEYYFEQHRANHILHKGSHHERKIRGSLKICSKSVIFEPDSISQPIIKIPLRDCIKIGKHGENGANRHFTKAKSGGISLIFSQVYFIKEHNVVAPYKIERGKMEYVFELDVPGKVEDVVETLLQLHRASCLDKLGDQTAMITAILQSRLARTSFDKNRFQNISEKLHMECKAEMVTPLVTNPGHVCITDTNLYFQPLNGYPKPVVQITLQDVRRIYKRRHGLMPLGLEVFCTEDDLCSDIYLKFYEPQDRDDLYFYIATYLEHHVAEHTAESYMLQWQRGHLSNYQYLLHLNNLADRSCNDLSQYPVFPWIIHDYSSSELDLSNPGTFRDLSKPVGALNKERLERLLTRYQEMPEPKFMYGSHYSSPGYVLFYLVRIAPEYMLCLQNGRFDNADRMFNSIAETWKNCLDGATDFKELIPEFYGDDVSFLVNSLKLDLGKRQGGQMVDDVELPPWASSPEDFLQKSKDALESNYVSEHLHEWIDLIFGYKQKGSDAVGAHNVFHPLTYEGGVDLNSIQDPDEKVAMLTQILEFGQTPKQLFVTPHPRRITPKFKSLSQTSSYNASMADSPGEESFEDLTEESKTLAWNNITKLQLHEHYKIHKEAVTGITVSRNGSSVFTTSQDSTLKMFSKESKMLQRSISFSNMALSSCLLLPGDATVITSSWDNNVYFYSIAFGRRQDTLMGHDDAVSKICWHDNRLYSASWDSTVKVWSGVPAEMPGTKRHHFDLLAELEHDVSVDTISLNAASTLLVSGTKEGTVNIWDLTTATLMHQIPCHSGIVCDTAFSPDSRHVLSTGTDGCLNVIDVQTGMLISSMTSDEPQRCFVWDGNSVLSGSQSGELLVWDLLGAKISERIQGHTGAVTCIWMNEQCSSIITGGEDRQIIFWKLQY [NSMAF]”, in series [1], the “solubility change mitosis (log2)” value was -0.221. The values for the thermal stability score in series [2] (setting [4]) and in series [2] (cell cycle stage: mitosis) were -0.603 and 0.514, respectively. With “MASDSGNQGTLCTLEFAVQMTCQSCVDAVRKSLQGVAGVQDVEVHLEDQMVLVHTTLPSQEVQALLEGTGRQAVLKGMGSGQLQNLGAAVAILGGPGTVQGVVRFLQLTPERCLIEGTIDGLEPGLHGLHVHQYGDLTNNCNSCGNHFNPDGASHGGPQDSDRHRGDLGNVRADADGRAIFRMEDEQLKVWDVIGRSLIIDEGEDDLGRGGHPLSKITGNSGERLACGIIARSAGLFQNPKQICSCDGLTIWEERGRPIAGKGRKESAQPPAHL [CCS]”, in series [1], the “solubility change mitosis (log2)” value is 0.0319. Besides, the thermal stability score in series [2] (setting [4]) was 0.914; in series [2] (cell cycle stage: mitosis) it was 0.694. As for “MGLTISSLFSRLFGKKQMRILMVGLDAAGKTTILYKLKLGEIVTTIPTIGFNVETVEYKNICFTVWDVGGQDRIRPLWKHYFQNTQGLIFVVDSNDRERIQEVADELQKMLLVDELRDAVLLLFANKQDLPNAMAISEMTDKLGLQSLRNRTWYVQATCATQGTGLYEGLDWLSNELSKR [ARF4]”, in series [1], the “solubility change mitosis (log2)” value is -0.374. For the same substance, the thermal stability score in series [2] (setting [4]) was found to be 4.99; in series [2] (cell cycle stage: mitosis), 6.18. Take MRPL47: in series [1], the “solubility change mitosis (log2)” value was determined as 0.0261. Turning to MRPL53, in series [1], the “solubility change mitosis (log2)” value amounted to 0.25. As to MRPS5, in series [1], the “solubility change mitosis (log2)” value was determined as 0.017.

As for MRPS9, the “solubility change mitosis (log2)” value in series [1] was -0.0743. As to MRPS14, the “solubility change mitosis (log2)” value in series [1] amounted to 0.165. MRPS18B: in series [1], the “solubility change mitosis (log2)” value came out at 0.111. Consider MRPS25, for which the “solubility change mitosis (log2)” value in series [1] was 0.166. On the same count and under the same terms, under MRPS30 stands -0.14.

With “MYRTKVGLKDRQQLYKLIISQLLYDGYISIANGLINEIKPQSVCAPSEQLLHLIKLGMENDDTAVQYAIGRSDTVAPGTGIDLEFDADVQTMSPEASEYETCYVTSHKGPCRVATYSRDGQLIATGSADASIKILDTERMLAKSAMPIEVMMNETAQQNMENHPVIRTLYDHVDEVTCLAFHPTEQILASGSRDYTLKLFDYSKPSAKRAFKYIQEAEMLRSISFHPSGDFILVGTQHPTLRLYDINTFQCFVSCNPQDQHTDAICSVNYNSSANMYVTGSKDGCIKLWDGVSNRCITTFEKAHDGAEVCSAIFSKNSKYILSSGKDSVAKLWEISTGRTLVRYTGAGLSGRQVHRTQAVFNHTEDYVLLPDERTISLCCWDSRTAERRNLLSLGHNNIVRCIVHSPTNPGFMTCSDDFRARFWYRRSTTD [CSTF1]”, the “solubility change mitosis (log2)” value in series [1] was -0.043. In addition, the thermal stability score in series [2] (setting [4]) is -1.59; in series [2] (cell cycle stage: mitosis) it was -2.67. As for NCK1, the “solubility change mitosis (log2)” value in series [1] was -0.221. For NCKIPSD, the “solubility change mitosis (log2)” value in series [1] is -0.148.

For NT5C3A, the “solubility change mitosis (log2)” value in series [1] is -0.0945. The same measure, in the same setting: the figure for NUDT1 is -0.22; for POLB it is -0.0195; for POLR2B it is 0.175.

Consider POLR2E, for which, in series [1], the “solubility change mitosis (log2)” value was determined as 0.311. Regarding PTCD3, the “solubility change mitosis (log2)” value in series [1] was -0.182. Consider RAC1, for which the “solubility change mitosis (log2)” value in series [1] is -0.0656. As to RPL4, in series [1], the “solubility change mitosis (log2)” value came out at 0.805.

RPL13: in series [1], the “solubility change mitosis (log2)” value came out at 0.759. For RPL23, the “solubility change mitosis (log2)” value in series [1] is 0.476. Regarding RPL27, the “solubility change mitosis (log2)” value in series [1] came to 0.573.

Take RPL29: the “solubility change mitosis (log2)” value in series [1] amounted to 1.68. On to RPL30, for which the “solubility change mitosis (log2)” value in series [1] amounted to 0.776. As to RPL32, in series [1], the “solubility change mitosis (log2)” value stood at 0.91. Regarding RPL35A, in series [1], the “solubility change mitosis (log2)” value is 0.707.

As for RPL37, the “solubility change mitosis (log2)” value in series [1] is 1.29. Take RPS3A: the “solubility change mitosis (log2)” value in series [1] was determined as 0.538. With RPS4X, the “solubility change mitosis (log2)” value in series [1] stood at 0.489. Still for that read-out and setting: the figure for RPS5 is 0.452; for RPS10 it is 0.59; for RPS21 it is 0.45. For S100A6, the “solubility change mitosis (log2)” value in series [1] is 0.893. For the substance SARS, the “solubility change mitosis (log2)” value in series [1] was -0.0633. Take SLAIN2: in series [1], the “solubility change mitosis (log2)” value was -0.187.

Take SNX27: in series [1], the “solubility change mitosis (log2)” value is -0.11. Consider TACO1, for which the “solubility change mitosis (log2)” value in series [1] came to 0.0266. Consider TMEM263, for which the “solubility change mitosis (log2)” value in series [1] amounted to 0.0364.

Take TUFM: the “solubility change mitosis (log2)” value in series [1] was -0.0187. Consider VPS35, for which, in series [1], the “solubility change mitosis (log2)” value is -0.178.
